According to patent publication US20240142454A1 (UNIVERSITY OF KENTUCKY RESEARCH FOUNDATION, published 2024):
Where no end group is shown, it is not given here.

B1: mouse monoclonal antibody 26A6 (antibody, mouse IgG2b, kappa, V domains shown)
VH: EVQLQQSGPVLVKPGASVKMSCKASGYTFTDFYLNWVKQSHGKTLEWIGVINPYNGITRYNQKFGGTATLTVDKSSSTAYMELNSLTSEDSAVYYCSRGGKTYYFDYWGQGTTLTVSP
VL: DVVMTQSPLSLPVSLGDQASISCRSSQSLVHSNGNTYLHWYLQKPGQSPKLLIYKVSNRFSGVPDRFSGSGSGTDFTLKINRVEAEDLGVYFCSQSTHVPPVTFGGGTKLEIKR
notes: used as hybridoma supernatant or Protein G-purified; also called 26A6 mAb; hybridoma ATCC PTA-126751
B2: immunizing peptide CGGGESVLTLK (peptide)
peptide: CGGGESVLTLK
modifications: also: conjugated to KLH for immunization
notes: Conjugated to KLH for immunization; also called peptide antigen; peptide ESVLTLK424

Experiments:
[1] = target: B2; experiment: ELISA on the immunizing peptide
Description: These mice were selected for further boosting and fusion with a Sp2/0 myeloma partner. The resulting hybridomas were screened first in ELISA assays to the immunizing peptide and secondly in Western blot assays to the uncleaved and cleaved CN, to confirm that they selectively bound the cleaved CN. A positive clone was identified-26A6. This clone was developed/subcloned further and characterized as to isotype. 26A6 is an IgG2b with a kappa light chain.
ELISA assays were carried out at GenScript. The immunizing peptide itself was bound to plates at a concentration of 1 μg/ml, 100 μl per well and supernatants from the hybridomas were used to bind to the peptide. An anti-IgG-HRP conjugated secondary antibody was used to detect the primary 26A6 antibody.

[2] = target: B1; experiment: competition in immunofluorescence of human brain sections
Description: Slides were baked in a 40° C. oven overnight, then deparaffinized using SafeClear (Fisher Scientific, Hampton, NH), and rehydrated through a series of alcohols and finally into PBS. Antigen retrieval was carried out in pressurized decloaking chamber (BioCare Medical, Concord, CA), according to manufacturer's directions using the Borg antigen retrieval solution (BioCare Medical, Concord, CA). Following antigen retrieval, slides were washed 3× in PBS. For sections designated for staining with the β-amyloid antibody downstream, the sections were treated with 70% formic acid for 5 mins, then washed. All sections were treated with 3% H₂O₂ in methanol to block endogenous […] activity. Slides were washed in PBS and sections were either stained for immunofluorescence or immunohistochemistry.
For immunofluorescence, sections were incubated in blocking solution (PBS with 3% bovine serum albumin, 5% goat serum, and 0.05% Triton X 100) for 30 minutes, and incubated overnight at room temperature in primary antibody in that same blocking solution. Primary antibodies used were: rabbit anti-GFAP (1:200; catalog #12389, Cell Signaling Technology, Danviers, MA) and mouse 26A6 hybridoma supernatants diluted 1:5 or 10 ug/ml of purified 26A6 antibody. Sometimes 75 μg/ml immunizing peptide was included with the 26A6 antibody as a negative control. […]

binding result [1] | binding result [2] | Binder
binds | – | B1
– | binds | B2
